PMC7367873, “Dissecting the sequence determinants for dephosphorylation by the catalytic subunits of phosphatases PP1 and PP2A” (Nature Communications, 2020)

Tests used:
[1] = test system: GFP-14-3-3β and its binding proteins; assay: GFP-14-3-3β co-IP with LC-MS/MS label-free quantification, untreated versus PP1c-treated; design: species or system human; settings: pairwise comparison PP1 vs untreated
GFP-14-3-3β = GFP-14-3-3β co-IP with LC-MS/MS, untreated GFP-14-3-3β versus GFP control (14-3-3 interactome); format: binding, human; settings: pairwise comparison untreated vs GFP

Molecule | Difference (log2), PP1 vs untreated [1] [log2] | Difference (log2), untreated vs GFP (GFP-14-3-3β) [log2]
LIG3 (protein, UniProt P49916 43-1009, looked up) DNA ligase 3: LLHGHPLFLRRKPVLSFQGSHLRSRATYLVFLPGLHVGLCSGPCEMAEQRFCVDYAKRGTAGCKKCKEKIVKGVCRIGKVVPNPFSESGGDMKEWYHIKCMFEKLERARATTKKIEDLTELEGWEELEDNEKEQITQHIADLSSKAAGTPKKKAVVQAKLTTTGQVTSPVKGASFVTSTNPRKFSGFSAKPNNSGEAPSSPTPKRSLSSSKCDPRHKDCLLREFRKLCAMVADNPSYNTKTQIIQDFLRKGSAGDGFHGDVYLTVKLLLPGVIKTVYNLNDKQIVKLFSRIFNCNPDDMARDLEQGDVSETIRVFFEQSKSFPPAAKSLLTIQEVDEFLLRLSKLTKEDEQQQALQDIASRCTANDLKCIIRLIKHDLKMNSGAKHVLDALDPNAYEAFKASRNLQDVVERVLHNAQEVEKEPGQRRALSVQASLMTPVQPMLAEACKSVEYAMKKCPNGMFSEIKYDGERVQVHKNGDHFSYFSRSLKPVLPHKVAHFKDYIPQAFPGGHSMILDSEVLLIDNKTGKPLPFGTLGVHKKAAFQDANVCLFVFDCIYFNDVSLMDRPLCERRKFLHDNMVEIPNRIMFSEMKRVTKALDLADMITRVIQEGLEGLVLKDVKGTYEPGKRHWLKVKKDYLNEGAMADTADLVVLGAFYGQGSKGGMMSIFLMGCYDPGSQKWCTVTKCAGGHDDATLARLQNELDMVKISKDPSKIPSWLKVNKIYYPDFIVPDPKKAAVWEITGAEFSKSEAHTADGISIRFPRCTRIRDDKDWKSATNLPQLKELYQLSKEKADFTVVAGDEGSSTTGGSSEENKGPSGSAVSRKAPSKPSASTKKAEGKLSNSNSKDGNMQTAKPSAMKVGEKLATKSSPVKVGEKRKAADETLCQTKVLLDIFTGVRLYLPPSTPDFSRLRRYFVAFDGDLVQEFDMTSATHVLGSRDKNPAAQQVSPEWIWACIRKRRLVAPC | -0.06583 | -0.6994
CSNK1A1 (protein, UniProt P48729 2-337, looked up) Casein kinase I isoform alpha: ASSSGSKAEFIVGGKYKLVRKIGSGSFGDIYLAINITNGEEVAVKLESQKARHPQLLYESKLYKILQGGVGIPHIRWYGQEKDYNVLVMDLLGPSLEDLFNFCSRRFTMKTVLMLADQMISRIEYVHTKNFIHRDIKPDNFLMGIGRHCNKLFLIDFGLAKKYRDNRTRQHIPYREDKNLTGTARYASINAHLGIEQSRRDDMESLGYVLMYFNRTSLPWQGLKAATKKQKYEKISEKKMSTPVEVLCKGFPAEFAMYLNYCRGLRFEEAPDYMYLRQLFRILFRTLNHQYDYTFDWTMLKQKAAQQAASSSGQGQQAQTPTGKQTDKTKSNMKGF | -0.08165 | 0.6201
EIF2AK2 (protein, UniProt P19525 2-551, looked up) Interferon-induced, …: AGDLSAGFFMEELNTYRQKQGVVLKYQELPNSGPPHDRRFTFQVIIDGREFPEGEGRSKKEAKNAAAKLAVEILNKEKKAVSPLLLTTTNSSEGLSMGNYIGLINRIAQKKRLTVNYEQCASGVHGPEGFHYKCKMGQKEYSIGTGSTKQEAKQLAAKLAYLQILSEETSVKSDYLSSGSFATTCESQSNSLVTSTLASESSSEGDFSADTSEINSNSDSLNSSSLLMNGLRNNQRKAKRSLAPRFDLPDMKETKYTVDKRFGMDFKEIELIGSGGFGQVFKAKHRIDGKTYVIKRVKYNNEKAEREVKALAKLDHVNIVHYNGCWDGFDYDPETSDDSLESSDYDPENSKNSSRSKTKCLFIQMEFCDKGTLEQWIEKRRGEKLDKVLALELFEQITKGVDYIHSKKLIHRDLKPSNIFLVDTKQVKIGDFGLVTSLKNDGKRTRSKGTLRYMSPEQISSQDYGKEVDLYALGLILAELLHVCDTAFETSKFFTDLRDGIISDIFDKKEKTLLQKLLSKKPEDRPNTSEILRTLTVWKKSPEKNERHTC | -0.09631 | 2.168
TRIP13 (protein, UniProt Q15645 1-432, looked up) Pachytene checkpoint protein …: MDEAVGDLKQALPCVAESPTVHVEVHQRGSSTAKKEDINLSVRKLLNRHNIVFGDYTWTEFDEPFLTRNVQSVSIIDTELKVKDSQPIDLSACTVALHIFQLNEDGPSSENLEEETENIIAANHWVLPAAEFHGLWDSLVYDVEVKSHLLDYVMTTLLFSDKNVNSNLITWNRVVLLHGPPGTGKTSLCKALAQKLTIRLSSRYRYGQLIEINSHSLFSKWFSESGKLVTKMFQKIQDLIDDKDALVFVLIDEVESLTAARNACRAGTEPSDAIRVVNAVLTQIDQIKRHSNVVILTTSNITEKIDVAFVDRADIKQYIGPPSAAAIFKIYLSCLEELMKCQIIYPRQQLLTLRELEMIGFIENNVSKLSLLLNDISRKSEGLSGRVLRKLPFLAHALYVQAPTVTIEGFLQALSLAVDKQFEERKKLAAYI | -0.09713 | 0.9602
HNRNPA1;HNRNPA1L2 (protein, UniProt P09651 1-372, looked up) Heterogeneous nuclear …: MSKSESPKEPEQLRKLFIGGLSFETTDESLRSHFEQWGTLTDCVVMRDPNTKRSRGFGFVTYATVEEVDAAMNARPHKVDGRVVEPKRAVSREDSQRPGAHLTVKKIFVGGIKEDTEEHHLRDYFEQYGKIEVIEIMTDRGSGKKRGFAFVTFDDHDSVDKIVIQKYHTVNGHNCEVRKALSKQEMASASSSQRGRSGSGNFGGGRGGGFGGNDNFGRGGNFSGRGGFGGSRGGGGYGGSGDGYNGFGNDGGYGGGGPGYSGGSRGYGSGGQGYGNQGSGYGGSGSYDSYNNGGGGGFGGGSGSNFGGGGSYNDFGNYNNQSSNFGPMKGGNFGGRSSGPYGGGGQYFAKPRNQGGYGGSSSSSSYGSGRRF | -0.1001 | 0.6063
TMOD3 (protein, UniProt Q9NYL9 1-352, looked up) Tropomodulin-3: MALPFRKDLEKYKDLDEDELLGNLSETELKQLETVLDDLDPENALLPAGFRQKNQTSKSTTGPFDREHLLSYLEKEALEHKDREDYVPYTGEKKGKIFIPKQKPVQTFTEEKVSLDPELEEALTSASDTELCDLAAILGMHNLITNTKFCNIMGSSNGVDQEHFSNVVKGEKILPVFDEPPNPTNVEESLKRTKENDAHLVEVNLNNIKNIPIPTLKDFAKALETNTHVKCFSLAATRSNDPVATAFAEMLKVNKTLKSLNVESNFITGVGILALIDALRDNETLAELKIDNQRQQLGTAVELEMAKMLEENTNILKFGYQFTQQGPRTRAANAITKNNDLVRKRRVEGDHQ | -0.1127 | 0.4757
GNB2 (protein, UniProt P62879 2-340, looked up) Guanine nucleotide-binding …: SELEQLRQEAEQLRNQIRDARKACGDSTLTQITAGLDPVGRIQMRTRRTLRGHLAKIYAMHWGTDSRLLVSASQDGKLIIWDSYTTNKVHAIPLRSSWVMTCAYAPSGNFVACGGLDNICSIYSLKTREGNVRVSRELPGHTGYLSCCRFLDDNQIITSSGDTTCALWDIETGQQTVGFAGHSGDVMSLSLAPDGRTFVSGACDASIKLWDVRDSMCRQTFIGHESDINAVAFFPNGYAFTTGSDDATCRLFDLRADQELLMYSHDNIICGITSVAFSRSGRLLLAGYDDFNCNIWDAMKGDRAGVLAGHDNRVSCLGVTDDGMAVATGSWDSFLKIWN | -0.1195 | -1.0406
RBM14 (protein, UniProt Q96PK6 1-669, looked up) RNA-binding protein 14: MKIFVGNVDGADTTPEELAALFAPYGTVMSCAVMKQFAFVHMRENAGALRAIEALHGHELRPGRALVVEMSRPRPLNTWKIFVGNVSAACTSQELRSLFERRGRVIECDVVKDYAFVHMEKEADAKAAIAQLNGKEVKGKRINVELSTKGQKKGPGLAVQSGDKTKKPGAGDTAFPGTGGFSATFDYQQAFGNSTGGFDGQARQPTPPFFGRDRSPLRRSPPRASYVAPLTAQPATYRAQPSVSLGAAYRAQPSASLGVGYRTQPMTAQAASYRAQPSVSLGAPYRGQLASPSSQSAAASSLGPYGGAQPSASALSSYGGQAAAASSLNSYGAQGSSLASYGNQPSSYGAQAASSYGVRAAASSYNTQGAASSLGSYGAQAASYGAQSAASSLAYGAQAASYNAQPSASYNAQSAPYAAQQAASYSSQPAAYVAQPATAAAYASQPAAYAAQATTPMAGSYGAQPVVQTQLNSYGAQASMGLSGSYGAQSAAAATGSYGAAAAYGAQPSATLAAPYRTQSSASLAASYAAQQHPQAAASYRGQPGNAYDGAGQPSAAYLSMSQGAVANANSTPPPYERTRLSPPRASYDDPYKKAVAMSKRYGSDRRLAELSDYRRLSESQLSFRRSPTKSSLDYRRLPDAHSDYARYSGSYNDYLRAAQMHSGYQRRM | -0.1292 | 0.5797
MARS (protein, UniProt P56192 1-900, looked up) Methionine--tRNA ligase, …: MRLFVSDGVPGCLPVLAAAGRARGRAEVLISTVGPEDCVVPFLTRPKVPVLQLDSGNYLFSTSAICRYFFLLSGWEQDDLTNQWLEWEATELQPALSAALYYLVVQGKKGEDVLGSVRRALTHIDHSLSRQNCPFLAGETESLADIVLWGALYPLLQDPAYLPEELSALHSWFQTLSTQEPCQRAAETVLKQQGVLALRPYLQKQPQPSPAEGRAVTNEPEEEELATLSEEEIAMAVTAWEKGLESLPPLRPQQNPVLPVAGERNVLITSALPYVNNVPHLGNIIGCVLSADVFARYSRLRQWNTLYLCGTDEYGTATETKALEEGLTPQEICDKYHIIHADIYRWFNISFDIFGRTTTPQQTKITQDIFQQLLKRGFVLQDTVEQLRCEHCARFLADRFVEGVCPFCGYEEARGDQCDKCGKLINAVELKKPQCKVCRSCPVVQSSQHLFLDLPKLEKRLEEWLGRTLPGSDWTPNAQFITRSWLRDGLKPRCITRDLKWGTPVPLEGFEDKVFYVWFDATIGYLSITANYTDQWERWWKNPEQVDLYQFMAKDNVPFHSLVFPCSALGAEDNYTLVSHLIATEYLNYEDGKFSKSRGVGVFGDMAQDTGIPADIWRFYLLYIRPEGQDSAFSWTDLLLKNNSELLNNLGNFINRAGMFVSKFFGGYVPEMVLTPDDQRLLAHVTLELQHYHQLLEKVRIRDALRSILTISRHGNQYIQVNEPWKRIKGSEADRQRAGTVTGLAVNIAALLSVMLQPYMPTVSATIQAQLQLPPPACSILLTNFLCTLPAGHQIGTVSPLFQKLENDQIESLRQRFGGGQAKTSPKPAVVETVTTAKPQQIQALMDEVTKQGNIVRELKAQKADKNEVAAEVAKLLDLKKQLAVAEGKPPEAPKGKKKK | -0.131 | 0.1917
